In patent US20210094998A1:
One block for each substance: values may come before it.

Columns and labels:
Assay in all cases: cell-based or functional assay
CRHR1 = target: CRHR1
CRHR2 = target: CRHR2
[1] = target: cynomolgus monkey GLP1 receptor (cynomolgus monkey) (UniProt F8V479)
[2] = target: cynomolgus monkey glucagon receptor (cynomolgus monkey)
[3] = target: human GLP1 receptor (human) (UniProt P43220)
[4] = target: human glucagon receptor (human) (UniProt P47871)
[5] = target: mouse GLP1 receptor (mouse) (UniProt O35659)
[6] = target: mouse glucagon receptor (mouse) (UniProt Q61606)
[7] = target: rat glucagon receptor (rat) (UniProt P30082)
[8] = target: human Y1 receptor (human) (UniProt P25929)
[9] = target: mouse Y2 receptor (mouse) (UniProt P97295)
rat Y2 receptor (rat) = target: rat Y2 receptor (rat)
[10] = target: rhesus monkey Y2 receptor (rhesus monkey) (UniProt Q9GK74)
Sequence of rhesus monkey Y2 receptor (rhesus monkey) (Q9GK74 whole entry): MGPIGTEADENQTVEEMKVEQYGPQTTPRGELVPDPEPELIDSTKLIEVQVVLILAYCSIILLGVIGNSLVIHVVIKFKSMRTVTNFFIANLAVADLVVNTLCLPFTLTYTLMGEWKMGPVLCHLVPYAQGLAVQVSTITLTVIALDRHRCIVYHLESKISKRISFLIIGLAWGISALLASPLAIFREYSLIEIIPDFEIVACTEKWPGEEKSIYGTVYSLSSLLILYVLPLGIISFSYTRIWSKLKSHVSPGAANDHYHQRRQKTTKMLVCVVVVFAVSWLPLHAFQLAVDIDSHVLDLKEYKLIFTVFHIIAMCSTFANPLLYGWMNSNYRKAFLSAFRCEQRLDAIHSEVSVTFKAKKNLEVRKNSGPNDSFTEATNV

Sequence of mouse GLP1 receptor (mouse) (O35659 22-463): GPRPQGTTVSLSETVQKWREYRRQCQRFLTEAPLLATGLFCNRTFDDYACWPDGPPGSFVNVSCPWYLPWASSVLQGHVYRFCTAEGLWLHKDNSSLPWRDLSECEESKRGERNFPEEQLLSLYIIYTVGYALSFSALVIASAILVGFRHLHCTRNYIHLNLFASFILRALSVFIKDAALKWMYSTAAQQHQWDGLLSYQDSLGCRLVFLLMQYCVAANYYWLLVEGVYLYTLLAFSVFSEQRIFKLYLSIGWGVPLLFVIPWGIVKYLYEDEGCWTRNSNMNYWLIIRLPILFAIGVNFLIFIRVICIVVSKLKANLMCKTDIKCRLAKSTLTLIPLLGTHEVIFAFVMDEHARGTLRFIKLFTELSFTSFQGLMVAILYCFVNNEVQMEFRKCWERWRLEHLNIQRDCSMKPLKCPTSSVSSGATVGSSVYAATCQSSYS
Sequence of rat glucagon receptor (rat) (P30082 27-485): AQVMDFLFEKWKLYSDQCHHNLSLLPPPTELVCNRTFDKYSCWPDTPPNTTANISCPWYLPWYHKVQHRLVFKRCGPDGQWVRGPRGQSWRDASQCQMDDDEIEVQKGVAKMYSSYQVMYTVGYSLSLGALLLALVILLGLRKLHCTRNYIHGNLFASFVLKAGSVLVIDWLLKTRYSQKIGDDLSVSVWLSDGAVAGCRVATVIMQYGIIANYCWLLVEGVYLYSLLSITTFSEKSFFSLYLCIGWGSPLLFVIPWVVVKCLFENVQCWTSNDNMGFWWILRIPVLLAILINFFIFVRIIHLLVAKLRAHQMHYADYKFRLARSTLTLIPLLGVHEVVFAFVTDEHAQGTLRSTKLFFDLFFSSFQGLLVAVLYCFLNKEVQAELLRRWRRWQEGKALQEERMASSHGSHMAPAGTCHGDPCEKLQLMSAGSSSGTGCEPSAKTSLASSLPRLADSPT
Sequence of human GLP1 receptor (human) (P43220 24-463): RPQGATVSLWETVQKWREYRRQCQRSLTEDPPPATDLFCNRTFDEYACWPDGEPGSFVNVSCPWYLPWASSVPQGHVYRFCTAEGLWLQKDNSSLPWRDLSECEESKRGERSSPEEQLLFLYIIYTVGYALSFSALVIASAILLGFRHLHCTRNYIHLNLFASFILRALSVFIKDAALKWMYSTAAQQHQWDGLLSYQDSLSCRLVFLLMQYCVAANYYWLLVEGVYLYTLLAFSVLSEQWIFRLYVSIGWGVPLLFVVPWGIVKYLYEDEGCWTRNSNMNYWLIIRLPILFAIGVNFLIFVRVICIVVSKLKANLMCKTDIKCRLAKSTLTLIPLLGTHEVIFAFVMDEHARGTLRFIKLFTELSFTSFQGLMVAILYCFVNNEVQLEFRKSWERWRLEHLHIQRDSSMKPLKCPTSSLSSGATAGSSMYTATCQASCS
Sequence of mouse Y2 receptor (mouse) (P97295 whole entry): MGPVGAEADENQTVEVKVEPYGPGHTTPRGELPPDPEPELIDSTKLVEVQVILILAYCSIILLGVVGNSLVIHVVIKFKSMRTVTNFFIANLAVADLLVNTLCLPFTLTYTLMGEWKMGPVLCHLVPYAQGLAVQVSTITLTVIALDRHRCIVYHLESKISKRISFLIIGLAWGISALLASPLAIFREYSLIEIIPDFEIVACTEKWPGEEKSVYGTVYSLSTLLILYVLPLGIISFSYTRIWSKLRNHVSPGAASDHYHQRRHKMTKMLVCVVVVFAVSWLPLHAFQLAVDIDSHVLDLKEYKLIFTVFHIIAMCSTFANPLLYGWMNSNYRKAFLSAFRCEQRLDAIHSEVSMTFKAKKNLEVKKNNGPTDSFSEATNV
Sequence of human Y1 receptor (human) (P25929 whole entry): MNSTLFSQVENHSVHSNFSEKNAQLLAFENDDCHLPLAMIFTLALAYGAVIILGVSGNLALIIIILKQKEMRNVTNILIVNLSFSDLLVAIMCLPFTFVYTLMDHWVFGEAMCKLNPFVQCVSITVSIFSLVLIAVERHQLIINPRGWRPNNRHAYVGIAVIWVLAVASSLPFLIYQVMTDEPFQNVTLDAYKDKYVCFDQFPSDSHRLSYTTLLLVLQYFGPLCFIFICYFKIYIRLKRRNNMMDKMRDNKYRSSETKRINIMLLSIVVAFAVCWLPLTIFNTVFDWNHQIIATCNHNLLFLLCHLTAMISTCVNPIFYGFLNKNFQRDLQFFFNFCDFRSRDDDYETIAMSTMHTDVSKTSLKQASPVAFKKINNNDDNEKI
Sequence of mouse glucagon receptor (mouse) (Q61606 27-485): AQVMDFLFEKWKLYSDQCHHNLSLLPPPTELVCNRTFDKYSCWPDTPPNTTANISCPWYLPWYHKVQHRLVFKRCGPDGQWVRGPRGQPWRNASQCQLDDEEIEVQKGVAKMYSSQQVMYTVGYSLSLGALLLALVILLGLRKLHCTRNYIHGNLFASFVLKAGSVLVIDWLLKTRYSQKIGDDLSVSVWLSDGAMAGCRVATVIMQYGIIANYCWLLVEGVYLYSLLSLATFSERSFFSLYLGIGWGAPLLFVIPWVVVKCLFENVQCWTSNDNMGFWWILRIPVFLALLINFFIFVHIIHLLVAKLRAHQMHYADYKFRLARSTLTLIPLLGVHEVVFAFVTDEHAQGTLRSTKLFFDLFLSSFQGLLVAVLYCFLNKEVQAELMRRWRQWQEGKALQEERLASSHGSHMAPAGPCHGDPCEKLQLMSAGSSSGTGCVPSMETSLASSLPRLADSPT
Sequence of human glucagon receptor (human) (P47871 26-477): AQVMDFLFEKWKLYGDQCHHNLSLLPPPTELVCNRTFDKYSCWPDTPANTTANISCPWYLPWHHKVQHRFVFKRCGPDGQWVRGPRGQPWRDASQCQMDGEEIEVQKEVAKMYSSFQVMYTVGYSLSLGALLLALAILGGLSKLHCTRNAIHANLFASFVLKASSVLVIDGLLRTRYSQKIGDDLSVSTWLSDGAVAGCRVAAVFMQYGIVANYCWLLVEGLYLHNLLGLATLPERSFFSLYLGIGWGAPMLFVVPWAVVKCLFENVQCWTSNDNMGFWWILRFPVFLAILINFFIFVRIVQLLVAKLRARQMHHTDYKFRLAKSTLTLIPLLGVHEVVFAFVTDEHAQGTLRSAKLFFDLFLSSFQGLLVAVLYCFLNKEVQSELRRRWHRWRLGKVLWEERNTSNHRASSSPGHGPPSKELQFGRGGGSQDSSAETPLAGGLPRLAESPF

Max response, cAMP assay (CRHR1): 106%
Max response, cAMP assay (CRHR2): 107%
Substance: Sauvagine (from UniProt P01144 1-40) (peptide; unit assumed)

EC50, receptor cAMP assay [1]: 80 pM
EC50, receptor cAMP assay [2]: > 100000 pM
EC50, receptor cAMP assay [3]: 70 pM
EC50, receptor cAMP assay [4]: > 100000 pM
EC50, receptor cAMP assay [5]: 60 pM
EC50, receptor cAMP assay [6]: > 100000 pM
EC50, receptor cAMP assay [7]: > 100000 pM
Substance: Ser-8 GLP1 (peptide)

RC50, cAMP assay (CRHR1): 0.000308 µM
RC50, cAMP assay (CRHR2): 0.0034 µM
Substance: Sauvagine (from UniProt P01144 1-40) (peptide)

EC50, cAMP assay (LANCE) on receptor-expressing cells [8]: 66400 pM
EC50, cAMP assay (LANCE) on receptor-expressing cells [9]: 30 pM
EC50, cAMP assay (LANCE) on receptor-expressing cells (rat Y2 receptor (rat)): 500 pM
EC50, cAMP assay (LANCE) on receptor-expressing cells [10]: 60 pM
Substance: PYY3-36 (peptide)
